A protein production outcome set (Wang et al. 2014)

Experiment: label from the status in PepcDB records

| Sequence | protein production |
| --- | --- |
| LQASCSDDQEHRLGSLDFYTGVFALEKSRIAEISNRATLELQKMATSGEPMWLRSVETGREILNYDEYLKEFPQAQASSFPGRKTIEASRDAGIVFMDAHKLAQSFMDVGQWKETFACLISKAATVDVIRQGEGPSRIDGAIQLMFGEMQLLTPVVPTREVYFVRSCRQLSPEKWAIVDVSVSVEDSNTEKEASLLKCRKLPSGCIIEDTSNGHSKVTWVEHLDVSASTVQPLFRSLVNTGLAFGARHWVATLQLHCERLVFFMATNVPTKDSLGVTTLAGRKSVLKMAQRMTQSFYRAIAASSYHQWTKITTKTGQDMRVSSRKNV | not failed |
| LRELDWFARRGLKEPNLAELLDLVALGSVADVVPLDANNRILVHQGLARIRAGRARPGLRALLEVAGRPPVRITSTDLGFILGPRLNAAGRLDDMSLGIECLLCDDEALARDMAVQLDQLNQDRKAIEQGMQREALAQLKELSLEQLPFGLCLFDADWHQGVIGILASRLKERYHRPTIAFADAGDGSLKGSARSIPGFHIRDALDAVAARHPGLISKFGGHAMAAGLSLPQENFGAFSAAFDAEVRRQLAEEDLAGRLLSDGQLSIQEFHLELARALRQAGPWGQHFPEPMFHGVFQLVQQRIVGERHLKLVLKSECGSLQLDGIAFNIDREQWPNPTVRWAELAYKLDVNEFRGQESVQLMIVHMAPR | failed |
| LRKSEERWQLAIVGTDEAIWDWDILTNHTYRSDRWFEMLGYERHEMSTFDDEWSIRIHPDDYNRVMAAQAAYLRREVPVYYTEYRLRCKDGNYKWFRSRAKGVWDEQGNPIRLVGSLGDITGRKSIELD | not failed |
| LRQQRLIWVVLALSCVIVISLLMLWRYTRFRSEAEAALIAETGFRRAMENSMSTGMRVLDMEGRIAYVNPAFCRMIGWNEADLIGRSPPFPYWVPGRHDQHQHTLEVLTSGKTPSSGLEVEAQRRDGSRFTARMYVSPLLDPNGDQIGWMTSMTDIT | failed |
| LRVFSSDGKLIAEFGEMRRTPIRFAEIPPNFINALLSAEDDNFANHYGVDPSSLMRAATQLVKSGHIQSGGSTITMQVAKNFFLTSERSFSRKTTEILLALQIERQLTKDEILELYVNKIYLGNRAYGIEAAAQVYYGKSIRDVSLAQMAMIAGLPKAPSRFNPLANA | failed |
| LSQNTLAENIYNIIISDISRKWALKDISDSLYMSCSTLKRKLKQEHTSFSEVYLNARMNKATKLLRNSEYNITRVAYMCGYDSASYFTCVFKKHFKTTPSEFLAFLSSSRHQ | failed |
| LTRSNISYFSIGSGTPIIFLHGLSLDKQSTCLFFEPLSNVGQYQRIYLDLPGMGNSDPISPSTSDNVLETLIEAIEEIIGARRFILYGHSYGGYLAQAIAFHLKDQTLGVFLTCPVITADHSKRLTGKHINILEEDINPVENKEYFADFLSMNVIINNQAWHDYQNLIIPGLQKEDKTFIDQLQNNYSFTFEEKLKNINYQFPFKIMVGRNDQVVGYQEQLKLINHNENGEIVLLNRTGHNLMIDQREAVGFHFDLFLDELNSN | failed |
| LVEDFERELGRMLSPFELEDLQKTVSDDKTDPDLVRSALREAVFNGKTNWNYIQAILRNWRHEGISTLRQVEE | not failed |
| LVTISSTSAASLPTMPPSGYDQVRNGVPRGQVVNISYFSTATNSTRPARVYLPPGYSKDKKYSVLYLLHGIGGSENDWFEGGGRANVIADNLIAEGKIKPLIIVTPNTNAAGPGIADGYENFTKDLLNSLIPYIESNYSVYTDREHRAIAGLSMGGGQSFNIGLTNLDKFAYIGPISAAPNTYPNERLFPDGGKAAREKLKLLFIACGTNDSLIGFGQRVHEYCVANNINHVYWLIQGGGHDFNVWKPGLWNFLQMADEAGLTRDGNT | not failed |
| LYDQGGPVEILPFLYLGSAYHASRKDMLDALGITALINVSANCPNHFEGHYQYKSIPVEDNHKADISSWFNEAIDFIDSIKNAGGRVFVHCQAGISRSATICLAYLMRTNRVKLDEAFEFVKQRRSIISPNFSFMGQLLQFESQVLAPHCSAEAGSPAMAVLDRGTSTTTVFNFPVSIPVHSTNSALSYLQSPITTSPSC | failed |
| LYQGFEKEFGRPLSPIELEMIGQWLNTDHYSPELIRLALREAVLNQAYSLKYIDRILLAWERKNITTKEQVAA | failed |
| MAAALPRTLGELQLYRILQKANLLSYFDAFIQQGGDDVQQLCEAGEEEFLEIMALVGMASKPLHVRRLQKALRDWVTNPGLFNQPLTSLPVSSIPIYKLPEGSPTWLGISCSSYERSSNAREPHLKIPKCAATTCVQSLGQGKSDVVGSLALQSVGESRLWQGHHATESEHSLSPADLGSPASPKESSEALDAAAALSVAECVERMAPTLPKSDLNEVKELLKTNKKLAKMIGHIFEMNDDDPHKEEEIRKYSAIYGRFDSKRKDGKHLTLHELTVNEAAAQLCVKDNALLTRRDELFALARQISREVTYKYTYRTTKSKCGERDELSPKRIKVEDGFPDFQDSVQTLFQQARAKSEELAALSSQQPEKVMAKQMEFLCNQAGYERLQHAERRLSAGLYRQSSEEHSPNGLTSDNSDGQGERPLNLRMPNLQNRQPHHFVVDGELSRLYPSEAKSHSSESLGILKDYPHSAFTLEKKVIKTEPEDSR | not failed |
| MAADKLADEVACMANTPGGGALIVGIEDKTGRIIGTELDIDWLRQGIFTRIDVAPDVVAKRVLGQRVLAIYVAAAAEPIEDTSDRLRWRVGDSCRPVDLEHHHHHH | failed |
| MAADVVFPGLCVFLSAGLLLALVHGRRVGRRADRQCRHLAAITDTMSEGFYVVDGDDRIVMANAAAGRILGYTQDDLIGACAHALFHARSADDPDPVPLEECRLNRAVRERRAAFLDVGHFRHRSGKIIAVEVSCNPVADTLAEEGRRGGLLGWLLDGDDAEGAPGALLSMVTFVDITARRESEAAVIKLSHAVEQSSASIVITDADGRIEYANPAFTKISGYTAQEAIGRRPSILKSGLVPAETYRALWQTITNGGEWRGEFHNRRKDGTLYWEMASISPIRDARGKITNFVAVKDDVTERKAIESELYHRANYDALTGLPNRQLLLDRVSTALDLARRHDRRVAVMFMDIDRFKQINDSMGHAAGDVLLKQAASRLAAVLRPQDTLGRLGGDEFLVVAPGLRWESEATALASRLLEVARRPFTIDGREVYVSVSIGVSLGPVDGTTAQALMRNADAAMYLAKGGGRDAAHFFTPDIEAAARRRMLIENGLRTAVSDGSLYLALQPIIACADHTMIKAEALLRWTHPQLGGVPPSEFIPIAEESGLIRAIGAWVIEEAARLLVSLDPPRDGAFRLGINIASSQFTGGLHHHVAGMLARYDLDPRMLEIEITERMLLDPSPAILEQVDALRAMGVSIAIDDFGTGYSALSYLSVFHVDTLKIDRAFVSVMTDEARSQALIGAIVALGHELGCAVVAEGVETADQARLLGELAVDALQGYFLGRPTTAEAISDRLNPGTGRPYDKAALGTEFAEGGDLGLSVGAL | failed |
| MAAFQIANKTVGKDAPVFIIAEAGINHDGKLDQAFALIDAAAEAGADAVKFQMFQADRMYQKDPGLYKTAAGKDVSIFSLVQSMEMPAEWILPLLDYCREKQVIFLSTVCDEGSADLLQSTSPSAFKIASYEINHLPLLKYVARLNRPMIFSTAGAEISDVHEAWRTIRAEGNNQIAIMHCVAKYPAPPEYSNLSVIPMLAAAFPEAVIGFSDHSEHPTEAPCAAVRLGAKLIEKHFTIDKNLPGADHSFALNPDELKEMVDGIRKTEAELKQGITKPVSEKLLGSSYKTTTAIEGEIRNFAYRGIFTTAPIQKGEAFSEDNIAVLRPGQKPQGLHPRFFELLTSGVRAVRDIPADTGIVWDDILLKDSPFHE | not failed |
| MAAHDDDMNRGIRPGRGSDDPAGQIAYLEQEIAVLRRKLADSPRHTRILEERIVELQTNLAGVSAQNERLANTLREARDQIVALKEEVDRLAQPPAGFGVFLTANEDGTADIFTGGRKLRVNVSPSVELEELRRGQELMLNEALNVVEAMEYESVGDIVTLKEILEDGERALVVGHTDEERVVRLAEPLLDVTIRPGDALLLEPRSGYVYEVVPKSEVEELVLEEVPDIGYEQIGGLGNQIEMIRDAVELPYLYPDLFKEHELRPPKGVLLYGPPGCGKTLIAKAVANSLAKKVAEVTGQATGKSFFLNIKGPELLNKYVGETERQIRLVFQRAREKASEGTPVIVFFDEMESLFRTRGSGVSSDVENTIVPQLLAEIDGVEGLQNVVVIGASNREDMIDPAILRPGRLDVKIKIERPDAEAAKDIFGKYLTERLPLHTEDVGEHGGDRSATVHGMIQTAVEQMYAESEENRFLEVTYANGDKEVLYFKDFNSGAMIENIVGRAKKMAIKDFLEHSQKGLRVSHLLQACVDEFKENEDLPNTTNPDDWARISGKKGERIVYIRTLITGKQGADTGRSIDTVANTGQYL | failed |
| MAAKFHLKKAKDGQFHFNLHAANGEIILTSELYKAKDSALGGIESVRKNSQRDGAFEVKPANNGKFHFVLKATNGQVVGQSQLYASQANAEAGVQSVKRATPEAGLSDESLEHHHHHH | not failed |
| MAALRYAGLDDTDSEDELPPGWEERTTKDGWVYYANHTEEKTQWEHPKTGKRKRVAGDLPYGWEQETDENGQVFFVDHINKRTTYLDPRLAFTVDDNPTKPTTRQRYDGSTTAMEILQGRDFTGKVVVVTGANSGIGFETAKSFALHGAHVILACRNMARASEAVSRILEEWQQGAATTVYCAAVPELEGLGGMYFNNCCRCMPSPEAQSEETARTLWALSERLIQERLGSQSG | not failed |
| MAAMPKPAAFWNDRFANEEYVYGEAPNRFVASAARTWLPEAGEVLLLGAGEGRNAVHLAREGHTVTAVDYAVEGLRKTERLATEAGVEVEAIQADVREWKPARAWDAVVVTFLHLPADERPGLYRLVQRCLRPGGRLVAEWFRPLEHHHHHH | failed |
| MAAMQWCGAMTRRIMMTQRTSAALNCSARYSSLSPACAAPAVSEMDLCGRGDKKTKKGKRFKGSYGNSRGKKQKMIERIKDKLELPRSTPWPLPFKLI | not failed |
| MAANDRAAAPGKSGGSAGADGLMRASLSAVAPGTSLRDGLERVLRGNTGGLIVLGSDKTVESMCTGGFVLDVEFTATRLRELCKLDGGIVLSSDLSKILRAGVQLLPDPTIPTEETGTRHRTADRVSKQVGFPVVSVSQSMRLIALYVDGQRRVLEDSAAILSRANQALATLERYKLRLDEVAGTLSALEIEDLVTVRDVSAVAQRLEMVRRIATEIAEYVVELGTDGRLLALQLDELIAGVEPERELVVRDYVPEPTAKRSRTVDEALAELDKLSHAELLELSTVARALGYTGSPETLDSAVSPRGFRLLAKVPRLPGAIIDRLVEHFGGLQKLLAASVDDLQTVDGVGEARARSVREGLSRLAESSILERYV | not failed |
| MAANGVRRALQASSSSGKILFGRSSAATSASKIGKSAGIAFGNGSSSSTRPSLRRLTFSRVPVELSAGISLIPLHSVTASALLTSLLSLSNQNWSCLSEGKFFTCVHDLCLELKLILNFCFQTRSKCSLNW | failed |
| MAANNSIEWRAVCEKFRLAQELSEIESKKDPENNPFRSKYKARDLLKEIHCSLKKIEIEEQGEAGDEADCESSQTADGEPEDGFEKTFTGDSAAGLRAARLAVLQYHLGVNHIETEELSAGELHLMVCMKLIDKCTTTRENVSLFIHVRNQLGILWAGRDEIEKAQGFLEIAETMYLVYMKEDGQPPLDLQDFFVPEGESQSFTGVLQLRSAVLRGESRSQERCRNRARAEYGDGLPAPSEDQQNSIHSGLLQLKW | failed |
| MAANVSGAKSCPANFLAAADDKLSGFQGDFLWPILVVEFLVAVASNGLALYRFSIRKQRPWHPAVVFSVQLAVSDLLCALTLPPLAAYLYPPKHWRYGEAACRLERFLFTCNLLGSVIFITCISLNRYLGIVHPFFARSHLRPKHAWAVSAAGWVLAALLAMPTLSFSHLKRPQQGAGNCSVARPEACIKCLGTADHGLAAYRAYSLVLAGLGCGLPLLLTLAAYGALGRAVLRSPGMTVAEKLRVAALVASGVALYASSYVPYHIMRVLNVDARRRWSTRCPSFADIAQATAALELGPYVGYQVMRGLMPLAFCVHPLLYMAAVPSLGCCCRHCPGYRDSWNPEDAKSTGQALPLNATAAPKPSEPQSRELSQ | failed |
